# Measured values as given in publication PMC4147340, “Mode and specificity of binding of the small molecule GANT61 to GLI determines inhibition of GLI-DNA binding” (Oncotarget, 2014).
# How the values were obtained:
# [1] = tested on: GLI1 (full length, GLI1-WT); assay: SPR; conditions: Biacore 3000, HBS-P buffer, 20 ul/min, 3 min association, 5 min dissociation; pH, salt and temperature not stated
# [2] = tested on: GLI1 (full length, GLI1-WT); assay: SPR inhibition; conditions: Biacore 3000, HBS-P buffer, 20 ul/min, 3 min association, 5 min dissociation; pH, salt and temperature not stated
# GLI1 = target: T1, GLI1 (Homo sapiens, UniProt P08151); assay: SPR (Biacore […]), GLI1 immobilized on CM5 chip, GANT61 […] as analyte; assay type: binding
# T1 construct: Full length GLI1 (OriGene)
# T1 sequence (P08151 1-1106): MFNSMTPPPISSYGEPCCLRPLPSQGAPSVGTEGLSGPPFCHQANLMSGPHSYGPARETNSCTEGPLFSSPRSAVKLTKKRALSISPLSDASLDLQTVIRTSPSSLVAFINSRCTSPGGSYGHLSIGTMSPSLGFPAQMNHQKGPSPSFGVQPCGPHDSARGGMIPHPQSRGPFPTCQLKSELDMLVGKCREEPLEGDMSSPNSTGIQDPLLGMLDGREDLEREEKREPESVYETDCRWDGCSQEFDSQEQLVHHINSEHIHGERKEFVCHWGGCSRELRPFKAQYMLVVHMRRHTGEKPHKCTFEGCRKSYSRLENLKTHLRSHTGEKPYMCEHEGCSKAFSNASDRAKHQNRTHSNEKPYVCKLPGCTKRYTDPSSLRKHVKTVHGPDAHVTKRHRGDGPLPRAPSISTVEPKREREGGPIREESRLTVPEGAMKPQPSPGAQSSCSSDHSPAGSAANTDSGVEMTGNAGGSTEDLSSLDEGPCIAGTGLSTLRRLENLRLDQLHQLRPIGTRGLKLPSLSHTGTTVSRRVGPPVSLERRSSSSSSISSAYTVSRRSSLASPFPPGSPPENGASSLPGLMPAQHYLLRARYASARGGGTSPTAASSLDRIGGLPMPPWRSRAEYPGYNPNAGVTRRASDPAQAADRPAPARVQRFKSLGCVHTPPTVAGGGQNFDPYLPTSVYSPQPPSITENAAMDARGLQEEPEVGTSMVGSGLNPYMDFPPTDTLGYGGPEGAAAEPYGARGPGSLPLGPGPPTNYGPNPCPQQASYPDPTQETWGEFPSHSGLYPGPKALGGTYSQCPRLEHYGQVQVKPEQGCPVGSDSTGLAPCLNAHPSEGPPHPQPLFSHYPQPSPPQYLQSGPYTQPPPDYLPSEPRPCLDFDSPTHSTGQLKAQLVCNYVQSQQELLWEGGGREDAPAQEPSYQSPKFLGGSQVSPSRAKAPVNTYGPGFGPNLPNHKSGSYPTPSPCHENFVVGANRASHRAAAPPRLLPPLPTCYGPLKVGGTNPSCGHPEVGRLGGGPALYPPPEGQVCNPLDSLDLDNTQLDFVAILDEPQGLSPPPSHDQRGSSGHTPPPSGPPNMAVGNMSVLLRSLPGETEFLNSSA
# GLI1 (ΔGLI-DM) = target: T2, GLI1 (ΔGLI-DM) (Homo sapiens, UniProt P08151, E250A/E298A); assay: SPR, ΔGLI-DM immobilized on Ni-NTA chip, GANT61 […] as analyte; assay type: binding
# T2 sequence (P08151 234-388 E250A/E298A limits assumed): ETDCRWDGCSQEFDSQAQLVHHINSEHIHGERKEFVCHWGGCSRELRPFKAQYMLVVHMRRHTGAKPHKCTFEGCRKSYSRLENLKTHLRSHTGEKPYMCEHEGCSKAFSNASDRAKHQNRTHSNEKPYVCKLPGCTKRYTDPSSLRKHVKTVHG
Compound,Kd [1],K half [2],Kd (GLI1),Kd (GLI1 (ΔGLI-DM))
biotinylated GLI1 DNA-binding sequence (21-mer),5.5 µM,3.2 µM,,
CN(C)c1ccccc1CN1CCCN(Cc2ccccc2N(C)C)C1c1ccncc1 [GANT61],,,7.5 µM,26.1 µM
